Assay [1] deals with T1, human OX40 expressed on cells (human, UniProt P43489 29-277).
T1 construct: also called CD134; TNFRSF4
T1 sequence: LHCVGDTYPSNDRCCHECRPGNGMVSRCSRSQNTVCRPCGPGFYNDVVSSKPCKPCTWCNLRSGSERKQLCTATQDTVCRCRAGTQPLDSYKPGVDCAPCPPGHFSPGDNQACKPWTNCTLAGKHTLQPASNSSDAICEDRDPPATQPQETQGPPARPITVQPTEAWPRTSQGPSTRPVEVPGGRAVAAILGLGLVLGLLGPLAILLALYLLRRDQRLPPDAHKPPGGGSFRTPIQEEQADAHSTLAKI
The assay is described as follows: flow cytometry, activated human CD8+ T cells, with 2 µg/mL sOX40L, n=3. On the procedure:
(§1) Stimulated PBMCs were pelleted, resuspended in FACS buffer 2 (DPBS with 2% heat-inactivated FBS [Sigma-Aldrich, cat. no. F7524] and 2 mM EDTA [Sigma-Aldrich, cat. no. 03690]), and seeded (100,000 cells/well) in round-bottom 96-well plates (VWR International GmbH, cat. no. 734-197). […] Next, cells were washed twice in FACS buffer, and incubated with 30 μL of the antibody panel described in Table 11 diluted in FACS buffer 2 containing 1:1,500 Fixable Viability Stain eFluor 780 at 4° C. for 20 min, protected from light. The cells were subsequently washed twice with 120-150 μL FACS buffer 2 and measured on a BD FACSCelesta flow cytometer using a BD High Throughput sampler and subsequent analysis was done using FlowJo software.
A general note: A flow cytometer gives signals particle by particle.

Assay [2] addresses T1, human OX40 expressed on cells. The assay is described as follows: flow cytometry, activated human CD4+ T cells, with 2 µg/mL sOX40L, n=3. As for the experimental part:
as §1

In assay [3] the target is T2, human OX40 with mouse CRD4 (human with mouse CRD4, UniProt P43489 29-277).
T2 construct: on ExpiCHO-S cells; also called OX40-CRD4mm; Shuffle 4
T2 chain: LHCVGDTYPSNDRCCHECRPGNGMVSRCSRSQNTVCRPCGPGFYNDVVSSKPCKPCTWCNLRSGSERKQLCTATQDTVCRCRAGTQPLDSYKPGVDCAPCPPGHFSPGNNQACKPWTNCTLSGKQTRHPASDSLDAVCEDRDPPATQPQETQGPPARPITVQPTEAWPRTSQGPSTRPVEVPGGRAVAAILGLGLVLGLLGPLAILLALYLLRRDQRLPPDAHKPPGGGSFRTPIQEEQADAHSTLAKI
The assay is described as follows: flow cytometry, transfected ExpiCHO-S cells, MFI at 5 µg/mL as % of IgG1-CD134-A4453. On the procedure: (§2) The four shuffle constructs, as well as wild-type human and mouse OX40 were transiently expressed on ExpiCHO-S cells using the ExpiFectamine™ CHO Transfection Kit (ThermoFisher, cat. no. A29131), according to the manufacturer's protocol. […] Next, cells were washed twice in FACS buffer 1, were resuspended in a 30 μL solution of viability marker ToPro-3 (Invitrogen, cat. no. T3605, diluted 1:10,000) in FACS buffer 1 supplemented with 2 mM EDTA, and were analyzed on an iQue Screener Plus (Intellicyt Corporation, USA). Data were analyzed using FlowJo software and visualized using GraphPad Prism.

The target of assay [4] is T3, human OX40 with mouse CRD2 (human with mouse CRD2, UniProt P43489 29-277).
T3 construct: on ExpiCHO-S cells; also called OX40-CRD2mm; Shuffle 2
T3 chain: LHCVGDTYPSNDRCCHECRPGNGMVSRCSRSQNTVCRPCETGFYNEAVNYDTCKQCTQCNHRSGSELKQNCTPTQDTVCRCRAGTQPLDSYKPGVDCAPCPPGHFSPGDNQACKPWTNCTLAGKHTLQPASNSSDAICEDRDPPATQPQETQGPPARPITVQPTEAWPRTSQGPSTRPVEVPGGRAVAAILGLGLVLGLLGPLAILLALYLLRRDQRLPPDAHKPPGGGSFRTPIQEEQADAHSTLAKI
Described as above. On the procedure: as §2

Assay [5] addresses T4, mouse OX40 expressed on ExpiCHO-S cells (mouse, UniProt P47741 20-272).
T4 construct: full-length entry; also called OX40mm; wild-type mouse OX40
T4 sequence: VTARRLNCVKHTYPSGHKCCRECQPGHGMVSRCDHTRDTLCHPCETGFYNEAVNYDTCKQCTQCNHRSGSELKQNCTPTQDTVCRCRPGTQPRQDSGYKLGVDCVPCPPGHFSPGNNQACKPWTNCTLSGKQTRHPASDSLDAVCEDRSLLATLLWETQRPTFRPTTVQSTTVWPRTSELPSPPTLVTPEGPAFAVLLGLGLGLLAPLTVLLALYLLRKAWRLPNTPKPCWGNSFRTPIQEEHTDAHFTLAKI
The assay is described as follows: flow cytometry, transfected ExpiCHO-S cells, gMFI (PE).

Here are results for 1 molecule from patent US20240400703A1 (Genmab, published 2024).

“And” between values parts separate entries of the source, which are not always exact repeats. Equal values may be shown once.

B1: IgG1-CD134-003-HC6LC2-P329R-E345R (antibody)
heavy: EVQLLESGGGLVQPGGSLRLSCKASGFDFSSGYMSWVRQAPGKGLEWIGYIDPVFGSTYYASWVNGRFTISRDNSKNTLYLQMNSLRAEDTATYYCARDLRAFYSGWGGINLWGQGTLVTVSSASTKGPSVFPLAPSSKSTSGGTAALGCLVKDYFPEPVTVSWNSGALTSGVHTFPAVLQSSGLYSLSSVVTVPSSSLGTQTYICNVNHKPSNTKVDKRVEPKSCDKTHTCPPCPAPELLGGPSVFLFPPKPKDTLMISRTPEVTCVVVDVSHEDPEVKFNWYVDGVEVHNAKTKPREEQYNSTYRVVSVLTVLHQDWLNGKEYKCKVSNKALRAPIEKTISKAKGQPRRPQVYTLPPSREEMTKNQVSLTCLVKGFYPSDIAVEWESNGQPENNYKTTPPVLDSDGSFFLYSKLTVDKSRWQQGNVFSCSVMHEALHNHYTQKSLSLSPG
light: AAVLTQSPSSLSASVGDRVTITCQSSQIVVNNNFLSWYQQKPGKAPKLLIYDASNLASGVPDRFSGSGSGTDFTFTISSLQPEDIATYYCLGGYDDDAENAFGGGTKVEIKRTVAAPSVFIFPPSDEQLKSGTASVVCLLNNFYPREAKVQWKVDNALQSGNSQESVTEQDSKDSTYSLSSTLTLSKADYEKHKVYACEVTHQGLSSPVTKSFNRGEC
notes: humanized; human IgG1 with P329R and E345R (Eu numbering), kappa; also called IgG1-CD134-003-HC6LC2-RR
Regarding B1, the EC50 was 0.038 µg/mL and 0.254 nM in assay [1]; 0.054 µg/mL and 0.359 nM in assay [2]. Besides, the binding result is recorded as “binds” in assay [3], “binds” in assay [4] and “no binding (tested: 50 µg/mL)” in assay [5].

What is called EC50 is the concentration needed to bring the measured effect to its halfway point.
